Measured values taken from patent US12281340B2, “Method of producing N-acyl-amino group-containing compound” (AJINOMOTO CO., INC., priority 2018, dated 2025).

What was measured:
Type in all cases: biochemical
Design in all cases: key: +: Detected; −: Not detected
[1] = Synthesis of N-caprinoylamino acid using purified acylamino acid synthetase, UPLC-MS detection; conditions: +ATP
In short: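 Purified enzyme (50 μg) with 5 mM amino acid, 5 mM sodium caprate, 10 mM ATP, 10 mM MgCl2, 1 mM DTT in Tris-HCl pH 8.0, 24 h at 25° C; product detected by UPLC-MS (ESI-negative) as the N-caprinoyl amino acid mass signal.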

[2] = Synthesis of N-acylamino acids from various fatty acids using purified acylamino acid synthetase, UPLC-MS detection
Procedure: 0.1 mL of a reaction solution containing 50 mM Tris-HCl, 5 mM amino acid, 5 mM sodium fatty acid (3 mM of sodium palmitate or sodium stearate), 10 mM ATP, 10 mM MgCl2, 1 mM DTT, 200 μg/mL of the purified enzyme, pH 8.0 was shaken at 25° C. for 24 hours. When sodium palmitate or sodium stearate was used, methanol at a final concentration of 10% (v/v) was contained in the reaction solution. As the amino acid, L-Asp was used in AtGH3-6, OsGH3-8, AtGH3-5, AtGH3-12, L-Ile was used in AtJAR1, L-Ala was used in AtGH3-10, SsGH3, L-Glu was used in AtGH3-17, Gly was used in CfHP, L-Lys was used in PsIAAL, and L-Cys was used in PaHP. After completion of the reaction, 0.4 mL of the reaction stop solution (1% (v/v) phosphoric acid, 75% (v/v) methanol) was added, and the mixture was filtrated through the filter followed by being subjected to the UPLC-MS analysis to detect a signal of a molecular weight corresponding to the N-acylamino acid.
The condition for the UPLC-MS analysis is as follows.
Apparatus: ACQUITY UPLC (Waters)
Column: ACQUITY UPLC BEH C18 1.7 μm 2.1×100 mm Column (Waters), mobile phase A: 0.1% formic acid; mobile phase B: acetonitrile
• Flow rate: 0.6 mL/minute • Injection amount: 2 μL • Column temperature: 40° C. • Ionization method: ESI-negative
As a result of the UPLC-MS analysis, the signal of the molecular weight corresponding to the appropriate N-acylamino acid was confirmed in the reaction solution containing the enzyme in combination with sodium fatty acid shown in Table 7 below.

[3] = Synthesis of N-caprinoyl-amino acid derivative, N-caprinoyl-D-amino acid and N-caprinoyl-peptide using purified acylamino acid synthetase, UPLC-MS detection; conditions: +ATP
In short: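 Purified enzyme (50 μg/mL) was incubated with 5 mM sodium caprate, 5 mM amino acid derivative, D-amino acid or peptide, 10 mM ATP, 10 mM MgCl2 and 1 mM DTT in 50 mM Tris-HCl, pH 8.0, for 24 h at 25 °C. After acidic methanol stop, UPLC-MS looked for the mass of the N-caprinoyl product.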

B1: AtGH3-17: indole-3-acetic acid-amido synthetase GH3.17 from Arabidopsis thaliana, His-tagged (protein, listed as Arabidopsis thaliana)
chain: MIPSYDPNDTEAGLKLLEDLTTNAEAIQQQVLHQILSQNSGTQYLRAFLDGEADKNQQSFKNKVPVVNYDDVKPFIQRIADGESSDIVSAQPITELLTSSGTSAGKPKLMPSTAEELERKTFFYSMLVPIMNKYVDGLDEGKGMYLLFIKPEIKTPSGLMARPVLTSYYKSQHFRNRPFNKYNVYTSPDQTILCQDSKQSMYCQLLCGLVQRSHVLRVGAVFASAFLRAVKFLEDHYKELCADIRTGTVTSWITDSSCRDSVLSILNGPNQELADEIESECAEKSWEGILRRIWPKAKYVEVIVTGSMAQYIPTLEFYSGGLPLVSTMYASSECYFGINLNPLCDPADVSYTLLPNMAYFEFLPVDDKSHEEIHFATHSNTDDDDDALKEDLIVNLVNVEVGQYYEIVITTFTGLYRYRVGDILKVTGFHNKAPQFRFVQRRNVVLSIDTDKTSEEDLLNAVTQAKLNHLQHPSSLLLTEYTSYADTSSIPGHYVLFWELKPRHSNDPPKLDDKTMEDCCSEVEDCLDYVYRRCRNRDKSIGPLEIRVVSLGTFDSLMDFCVSQGSSLNQYKTPRCVKSGGALEILDSRVIGRFFSKRVPQWEPLGLDS
modifications: His-tag
notes: indole-3-acetic acid-amido synthetase GH3.17 from Arabidopsis thaliana, His-tagged
signal of molecular weight corresponding to N-caprinoyl amino acid ([1]; substrates GABA and sodium caprate): + | signal of molecular weight corresponding to N-caprinoyl amino acid ([1]; substrates Gly and sodium caprate): + | signal of molecular weight corresponding to N-caprinoyl amino acid ([1]; substrates L-Ala and sodium caprate): + | signal of molecular weight corresponding to N-caprinoyl amino acid ([1]; substrates L-Arg and sodium caprate): − | signal of molecular weight corresponding to N-caprinoyl amino acid ([1]; substrates L-Asn and sodium caprate): + | signal of molecular weight corresponding to N-caprinoyl amino acid ([1]; substrates L-Asp and sodium caprate): + | signal of molecular weight corresponding to N-caprinoyl amino acid ([1]; substrates L-Cys and sodium caprate): + | signal of molecular weight corresponding to N-caprinoyl amino acid ([1]; substrates L-Gln and sodium caprate): + | signal of molecular weight corresponding to N-caprinoyl amino acid ([1]; substrates L-Glu and sodium caprate): + | signal of molecular weight corresponding to N-caprinoyl amino acid ([1]; substrates L-His and sodium caprate): − | signal of molecular weight corresponding to N-caprinoyl amino acid ([1]; substrates L-Ile and sodium caprate): + | signal of molecular weight corresponding to N-caprinoyl amino acid ([1]; substrates L-Leu and sodium caprate): + | signal of molecular weight corresponding to N-caprinoyl amino acid ([1]; substrates L-Lys and sodium caprate): − | signal of molecular weight corresponding to N-caprinoyl amino acid ([1]; substrates L-Met and sodium caprate): + | signal of molecular weight corresponding to N-caprinoyl amino acid ([1]; substrates L-Phe and sodium caprate): + | signal of molecular weight corresponding to N-caprinoyl amino acid ([1]; substrates L-Pro and sodium caprate): − | signal of molecular weight corresponding to N-caprinoyl amino acid ([1]; substrates L-Ser and sodium caprate): + | signal of molecular weight corresponding to N-caprinoyl amino acid ([1]; substrates L-Thr and sodium caprate): + | signal of molecular weight corresponding to N-caprinoyl amino acid ([1]; substrates L-Trp and sodium caprate): + | signal of molecular weight corresponding to N-caprinoyl amino acid ([1]; substrates L-Tyr and sodium caprate): + | signal of molecular weight corresponding to N-caprinoyl amino acid ([1]; substrates L-Val and sodium caprate): + | signal of molecular weight corresponding to N-caprinoyl amino acid ([1]; substrates β-Ala and sodium caprate): + | signal of molecular weight corresponding to N-acylamino acid ([2]; substrates L-Cys and Capric acid): + | signal of molecular weight corresponding to N-acylamino acid ([2]; substrates L-Cys and Caproic acid): + | signal of molecular weight corresponding to N-acylamino acid ([2]; substrates L-Cys and Caprylic acid): + | signal of molecular weight corresponding to N-acylamino acid ([2]; substrates L-Cys and Lauric acid): + | signal of molecular weight corresponding to N-acylamino acid ([2]; substrates L-Cys and Linoleic acid): − | signal of molecular weight corresponding to N-acylamino acid ([2]; substrates L-Cys and Palmitic acid): − | signal of molecular weight corresponding to N-acylamino acid ([2]; substrates L-Cys and myristic acid): − | signal of molecular weight corresponding to N-acylamino acid ([2]; substrates L-Glu and Capric acid): + | signal of molecular weight corresponding to N-acylamino acid ([2]; substrates L-Glu and Caproic acid): + | signal of molecular weight corresponding to N-acylamino acid ([2]; substrates L-Glu and Caprylic acid): + | signal of molecular weight corresponding to N-acylamino acid ([2]; substrates L-Glu and Lauric acid): + | signal of molecular weight corresponding to N-acylamino acid ([2]; substrates L-Glu and Linoleic acid): − | signal of molecular weight corresponding to N-acylamino acid ([2]; substrates L-Glu and Palmitic acid): + | signal of molecular weight corresponding to N-acylamino acid ([2]; substrates L-Glu and myristic acid): + | signal of molecular weight corresponding to N-caprinoyl compound ([3]; substrates Carnosine and sodium caprate): − | signal of molecular weight corresponding to N-caprinoyl compound ([3]; substrates D-Ala and sodium caprate): − | signal of molecular weight corresponding to N-caprinoyl compound ([3]; substrates D-Asp and sodium caprate): + | signal of molecular weight corresponding to N-caprinoyl compound ([3]; substrates D-Cys and sodium caprate): − | signal of molecular weight corresponding to N-caprinoyl compound ([3]; substrates D-Glu and sodium caprate): + | signal of molecular weight corresponding to N-caprinoyl compound ([3]; substrates D-Ile and sodium caprate): + | signal of molecular weight corresponding to N-caprinoyl compound ([3]; substrates D-Lys and sodium caprate): − | signal of molecular weight corresponding to N-caprinoyl compound ([3]; substrates L-Asp-L-Phe and sodium caprate): − | signal of molecular weight corresponding to N-caprinoyl compound ([3]; substrates L-Gly-L-Gly and sodium caprate): + | signal of molecular weight corresponding to N-caprinoyl compound ([3]; substrates Sarcosine and sodium caprate): − | signal of molecular weight corresponding to N-caprinoyl compound ([3]; substrates Taurine and sodium caprate): +
